# “Also recorded” adds a separate entry of the source.
# B1: chAB2: mouse-human chimeric anti-Sp17 monoclonal antibody; human VH/VL (SEQ ID NO: 3, 4) in mouse IgG2a heavy chain and mouse kappa light chain (antibody, V domains shown)
# VH: QVQLQQSGAEVKKPGSSVKVSCKASGGTFSSYAISWVRQAPGQGLEWMGRIIPILGIANYAQKFQGRVTITADKSTSTAYMELSSLRSEDTAVYYCARPSEEVVAAYGAFDIWGQGTTVTVSS
# VL: EIVLTQSPLSLPVRPGEPASISCRASQSLLRSDGFNYLDWYLQKPGQSPQLLVYLGSNRASGVPDRFSGSGSGTDFTLKISRVEAEDVGVYYCMQAVQTPYIFGQGTKLEIK
# modifications: mouse IgG2a and kappa constant regions
# Test system: 33 normal human tissues
# Experiment: Immunohistochemistry on a normal tissue microarray (specificity)
# Details: 33 normal tissues, 2-3 human donors per tissue
# Protocol: The specificity of the chAB2 antibody for Sp17 was determined with immunohistochemistry on a normal tissue microarray, which consisted of 33 normal tissues obtained from 2-3 human donors per tissue. The normal tissues included brain, eye, adrenal gland, hypophyseal, thyroid, parathyroid, tonsil, thymus, spleen, heart, lung, larynx, esophagus, stomach, small intestine, colon, liver, pancreas, salivary gland, kidney, bone, skeletal, skin, peripheral nerve, mesothelial, breast, ovary, endometrium, cervix, testis, and prostate.
molecule,measurement,value
B1,binding to normal human tissues / cross-reactivity,bound to testis and did not bind to normal tissues; also recorded: lack detectable cross-reactivity

# Reference: patent publication US12319747B2, “Methods of using anti-SP17 immunotherapeutics” (Medicovestor, Inc., priority 2023, dated 2025)
